T1: FRMPD1, Q5SYB0
T1 sequence (Q5SYB0 52-145, limits assumed, looked up): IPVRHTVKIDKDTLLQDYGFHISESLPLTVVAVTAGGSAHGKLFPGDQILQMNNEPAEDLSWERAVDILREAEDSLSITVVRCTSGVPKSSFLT

T2: GRIP1_2, Q9Y3R0
T2 sequence (Q9Y3R0 145-248, limits assumed, looked up): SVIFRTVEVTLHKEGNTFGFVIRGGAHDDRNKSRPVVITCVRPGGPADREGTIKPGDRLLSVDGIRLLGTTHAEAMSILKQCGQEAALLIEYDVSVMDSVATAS

T3: GRIP1_3, Q9Y3R0
T3 sequence (Q9Y3R0 247-346, limits assumed, looked up): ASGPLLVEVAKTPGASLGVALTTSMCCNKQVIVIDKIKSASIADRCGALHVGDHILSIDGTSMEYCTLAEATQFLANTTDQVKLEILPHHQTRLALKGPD

T4: GRIP1_5, Q9Y3R0
T4 sequence (Q9Y3R0 568-668, limits assumed, looked up): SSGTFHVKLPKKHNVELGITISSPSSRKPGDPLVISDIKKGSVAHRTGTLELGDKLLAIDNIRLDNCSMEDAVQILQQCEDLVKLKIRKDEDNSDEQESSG

T5: LIN7A, O14910
T5 sequence (O14910 103-200, limits assumed, looked up): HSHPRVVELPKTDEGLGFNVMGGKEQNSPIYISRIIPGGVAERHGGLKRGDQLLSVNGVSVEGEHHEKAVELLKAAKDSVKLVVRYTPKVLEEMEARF

T6: PDZRN3_1, Q9UPQ7
T6 sequence (Q9UPQ7 244-349, limits assumed, looked up): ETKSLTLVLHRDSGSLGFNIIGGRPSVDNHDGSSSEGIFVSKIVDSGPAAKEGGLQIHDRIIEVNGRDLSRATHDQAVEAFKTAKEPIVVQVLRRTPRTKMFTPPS

T7: RADIL, Q96JH8
T7 sequence (Q96JH8 971-1071, limits assumed, looked up): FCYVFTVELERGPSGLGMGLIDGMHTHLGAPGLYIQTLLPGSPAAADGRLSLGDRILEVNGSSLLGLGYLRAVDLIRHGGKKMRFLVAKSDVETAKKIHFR

T8: RAPGEF6, Q8TEU7
T8 sequence (Q8TEU7 525-625, limits assumed, looked up): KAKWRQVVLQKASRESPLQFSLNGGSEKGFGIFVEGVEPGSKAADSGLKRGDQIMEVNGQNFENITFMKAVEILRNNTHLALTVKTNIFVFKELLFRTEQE

T9: RHPN1, Q8TCX5
T9 sequence (Q8TCX5 508-602, limits assumed, looked up): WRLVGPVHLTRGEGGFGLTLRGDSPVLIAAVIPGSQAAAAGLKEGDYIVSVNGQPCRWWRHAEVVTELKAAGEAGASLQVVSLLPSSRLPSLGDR

T10: TJP3_3, O95049
T10 sequence (O95049 375-456, limits assumed, looked up): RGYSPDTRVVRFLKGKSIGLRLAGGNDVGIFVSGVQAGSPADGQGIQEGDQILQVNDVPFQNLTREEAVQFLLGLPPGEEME


Tests used:
Assay in all cases: holdup assay
Design in all cases: key: below the threshold = too weak to quantify, mostly under pKd 3.1 to 4
Conditions in all cases: plain residues with an end cap or a label only (N-terminal biotin on a linker: ado-ado)
DLG1_1, Q12959 = target: DLG1_1, Q12959
DLG4_3, P78352 = target: DLG4_3, P78352
DLG4_3, P78352, sequence (P78352 306-403): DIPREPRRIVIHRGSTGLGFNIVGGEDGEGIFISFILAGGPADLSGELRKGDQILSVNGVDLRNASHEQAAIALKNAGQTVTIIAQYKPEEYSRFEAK

DLG5_1, Q8TDM6 = target: DLG5_1, Q8TDM6
DLG5_1, Q8TDM6, sequence (Q8TDM6 617-713): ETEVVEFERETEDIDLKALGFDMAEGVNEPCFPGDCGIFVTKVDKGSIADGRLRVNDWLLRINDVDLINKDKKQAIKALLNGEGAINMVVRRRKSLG

FRMPD1, Q5SYB0 = target: T1, FRMPD1, Q5SYB0
GOPC, Q9HD26 = target: GOPC, Q9HD26
GORASP1, Q9BQQ3 = target: GORASP1, Q9BQQ3
GORASP1, Q9BQQ3, sequence (Q9BQQ3 1-208): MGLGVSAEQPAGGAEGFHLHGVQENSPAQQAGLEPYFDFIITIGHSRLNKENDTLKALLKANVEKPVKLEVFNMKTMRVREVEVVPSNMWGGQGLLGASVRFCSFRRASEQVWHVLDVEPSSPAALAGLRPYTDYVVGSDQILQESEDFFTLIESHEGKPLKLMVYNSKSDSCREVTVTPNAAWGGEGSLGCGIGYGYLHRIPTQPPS

GORASP2, Q9H8Y8 = target: GORASP2, Q9H8Y8
GRIP1_2, Q9Y3R0 = target: T2, GRIP1_2, Q9Y3R0
GRIP1_3, Q9Y3R0 = target: T3, GRIP1_3, Q9Y3R0
GRIP1_5, Q9Y3R0 = target: T4, GRIP1_5, Q9Y3R0
HTRA1, Q92743 = target: HTRA1, Q92743
HTRA1, Q92743, sequence (Q92743 360-477): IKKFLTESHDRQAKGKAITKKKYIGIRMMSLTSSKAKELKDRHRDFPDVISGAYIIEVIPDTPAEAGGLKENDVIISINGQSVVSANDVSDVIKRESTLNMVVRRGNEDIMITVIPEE

Inadl_10, Q8NI35 = target: Inadl_10, Q8NI35
Inadl_10, Q8NI35, sequence (Q8NI35 1673-1763): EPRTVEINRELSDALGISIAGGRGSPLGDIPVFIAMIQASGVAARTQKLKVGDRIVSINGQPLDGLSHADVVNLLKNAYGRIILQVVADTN

LIN7A, O14910 = target: T5, LIN7A, O14910
LNX1_1, Q8TBB1 = target: LNX1_1, Q8TBB1
LNX1_1, Q8TBB1, sequence (Q8TBB1 261-371): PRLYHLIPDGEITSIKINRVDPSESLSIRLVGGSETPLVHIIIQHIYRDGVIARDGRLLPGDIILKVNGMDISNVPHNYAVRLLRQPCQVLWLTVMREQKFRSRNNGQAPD

LNX1_3, Q8TBB1 = target: LNX1_3, Q8TBB1
LNX1_3, Q8TBB1, sequence (Q8TBB1 500-596): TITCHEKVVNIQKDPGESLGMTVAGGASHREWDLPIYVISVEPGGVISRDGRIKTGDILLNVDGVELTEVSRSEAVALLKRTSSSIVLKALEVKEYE

MAGI1_1, Q96QZ7 = target: MAGI1_1, Q96QZ7
MAGI1_1, Q96QZ7, sequence (Q96QZ7 1-106): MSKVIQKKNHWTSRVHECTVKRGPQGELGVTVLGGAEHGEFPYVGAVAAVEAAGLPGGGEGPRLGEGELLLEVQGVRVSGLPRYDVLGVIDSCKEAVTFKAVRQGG

MAST2, Q6P0Q8 = target: MAST2, Q6P0Q8
MAST2, Q6P0Q8, sequence (Q6P0Q8 1099-1202): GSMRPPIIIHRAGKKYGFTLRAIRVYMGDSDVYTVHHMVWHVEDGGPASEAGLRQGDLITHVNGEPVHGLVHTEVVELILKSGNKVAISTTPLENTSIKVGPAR

NHERF4_2, Q86UT5 = target: NHERF4_2, Q86UT5
NHERF4_2, Q86UT5, sequence (Q86UT5 220-308): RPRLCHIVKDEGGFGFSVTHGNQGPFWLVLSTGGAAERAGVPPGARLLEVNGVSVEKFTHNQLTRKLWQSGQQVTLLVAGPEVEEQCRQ

NHERF4_4, Q86UT5 = target: NHERF4_4, Q86UT5
NHERF4_4, Q86UT5, sequence (Q86UT5 464-550): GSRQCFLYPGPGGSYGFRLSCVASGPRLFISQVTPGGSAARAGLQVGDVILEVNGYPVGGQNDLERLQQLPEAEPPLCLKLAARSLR

PDLIM1, O00151 = target: PDLIM1, O00151
PDLIM1, O00151, sequence (O00151 1-87): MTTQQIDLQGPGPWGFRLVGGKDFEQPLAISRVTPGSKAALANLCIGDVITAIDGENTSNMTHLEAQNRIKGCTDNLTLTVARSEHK

PDZRN3_1, Q9UPQ7 = target: T6, PDZRN3_1, Q9UPQ7
PDZRN4_1, Q6ZMN7 = target: PDZRN4_1, Q6ZMN7
PDZRN4_1, Q6ZMN7, sequence (Q6ZMN7 213-318): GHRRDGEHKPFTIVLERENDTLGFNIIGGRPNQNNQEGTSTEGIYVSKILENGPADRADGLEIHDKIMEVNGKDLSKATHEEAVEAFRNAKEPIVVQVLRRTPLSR

RADIL, Q96JH8 = target: T7, RADIL, Q96JH8
RAPGEF6, Q8TEU7 = target: T8, RAPGEF6, Q8TEU7
RHPN1, Q8TCX5 = target: T9, RHPN1, Q8TCX5
SCRIB_1, Q14160 = target: SCRIB_1, Q14160
SCRIB_1, Q14160, sequence (Q14160 718-814): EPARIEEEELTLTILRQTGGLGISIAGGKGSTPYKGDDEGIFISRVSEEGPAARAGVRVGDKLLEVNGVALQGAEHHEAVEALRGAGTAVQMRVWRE

TJP2_1, Q9UDY2 = target: TJP2_1, Q9UDY2
TJP2_1, Q9UDY2, sequence (Q9UDY2 24-128): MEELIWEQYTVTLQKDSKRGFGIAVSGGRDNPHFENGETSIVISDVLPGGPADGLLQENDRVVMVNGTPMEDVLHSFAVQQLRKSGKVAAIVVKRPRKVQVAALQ

TJP3_3, O95049 = target: T10, TJP3_3, O95049

Binder	pKd (DLG1_1, Q12959)	pKd (DLG4_3, P78352)	pKd (DLG5_1, Q8TDM6)	pKd (FRMPD1, Q5SYB0)	pKd (GOPC, Q9HD26)	pKd (GORASP1, Q9BQQ3)	pKd (GORASP2, Q9H8Y8)	pKd (GRIP1_2, Q9Y3R0)	pKd (GRIP1_3, Q9Y3R0)	pKd (GRIP1_5, Q9Y3R0)	pKd (HTRA1, Q92743)	pKd (Inadl_10, Q8NI35)	pKd (LIN7A, O14910)	pKd (LNX1_1, Q8TBB1)	pKd (LNX1_3, Q8TBB1)	pKd (MAGI1_1, Q96QZ7)	pKd (MAST2, Q6P0Q8)	pKd (NHERF4_2, Q86UT5)	pKd (NHERF4_4, Q86UT5)	pKd (PDLIM1, O00151)	also measured
DYSNLRETDI [ADRA1D, P25100]	4.1	below the threshold	3.5	below the threshold	below the threshold	below the threshold	below the threshold	below the threshold	below the threshold	below the threshold	below the threshold	below the threshold	below the threshold	4.44	below the threshold	below the threshold	5.22	below the threshold	below the threshold	below the threshold	pKd (PDZRN3_1, Q9UPQ7): 3.69; pKd (PDZRN4_1, Q6ZMN7): below the threshold; pKd (RADIL, Q96JH8): below the threshold; pKd (RAPGEF6, Q8TEU7): below the threshold; pKd (RHPN1, Q8TCX5): 4.35; pKd (SCRIB_1, Q14160): 4.95; pKd (TJP2_1, Q9UDY2): below the threshold; pKd (TJP3_3, O95049): below the threshold
SAGADSETHC [SLCO1B1, Q9Y6L6]	below the threshold	below the threshold	below the threshold	below the threshold	below the threshold	below the threshold	below the threshold	below the threshold	below the threshold	below the threshold	3.51	below the threshold	below the threshold	below the threshold	below the threshold	below the threshold	4.62	below the threshold	below the threshold	below the threshold	pKd (PDZRN3_1, Q9UPQ7): below the threshold; pKd (PDZRN4_1, Q6ZMN7): below the threshold; pKd (RADIL, Q96JH8): below the threshold; pKd (RAPGEF6, Q8TEU7): below the threshold; pKd (RHPN1, Q8TCX5): 3.49; pKd (SCRIB_1, Q14160): 3.68; pKd (TJP2_1, Q9UDY2): below the threshold; pKd (TJP3_3, O95049): below the threshold
GVHSNDHSVV [LPAR1, Q92633]	3.74	below the threshold	below the threshold	below the threshold	3.59	3.48	3.61	below the threshold	below the threshold	below the threshold	4.3	below the threshold	below the threshold	below the threshold	below the threshold	below the threshold	4.12	below the threshold	below the threshold	below the threshold	pKd (PDZRN3_1, Q9UPQ7): below the threshold; pKd (PDZRN4_1, Q6ZMN7): below the threshold; pKd (RADIL, Q96JH8): 3.62; pKd (RAPGEF6, Q8TEU7): below the threshold; pKd (RHPN1, Q8TCX5): 3.78; pKd (SCRIB_1, Q14160): below the threshold; pKd (TJP2_1, Q9UDY2): below the threshold; pKd (TJP3_3, O95049): below the threshold
WAKEKQHTRL [SLC17A1, Q14916]	3.64	below the threshold	below the threshold	below the threshold	4.91	below the threshold	below the threshold	below the threshold	below the threshold	below the threshold	below the threshold	below the threshold	below the threshold	3.47	below the threshold	below the threshold	5.45	below the threshold	below the threshold	below the threshold	pKd (PDZRN3_1, Q9UPQ7): 3.79; pKd (PDZRN4_1, Q6ZMN7): 3.85; pKd (RADIL, Q96JH8): below the threshold; pKd (RAPGEF6, Q8TEU7): below the threshold; pKd (RHPN1, Q8TCX5): 3.97; pKd (SCRIB_1, Q14160): 4.21; pKd (TJP2_1, Q9UDY2): 3.82; pKd (TJP3_3, O95049): below the threshold

— paper PMC9482650, “Quantitative fragmentomics allow affinity mapping of interactomes” (Nature Communications, 2022)
